T1: human CD20 antigen (human, UniProt P11836 1-297)
T1 construct: whole, on cells; also called Bp35; B1
T1 sequence (looked up): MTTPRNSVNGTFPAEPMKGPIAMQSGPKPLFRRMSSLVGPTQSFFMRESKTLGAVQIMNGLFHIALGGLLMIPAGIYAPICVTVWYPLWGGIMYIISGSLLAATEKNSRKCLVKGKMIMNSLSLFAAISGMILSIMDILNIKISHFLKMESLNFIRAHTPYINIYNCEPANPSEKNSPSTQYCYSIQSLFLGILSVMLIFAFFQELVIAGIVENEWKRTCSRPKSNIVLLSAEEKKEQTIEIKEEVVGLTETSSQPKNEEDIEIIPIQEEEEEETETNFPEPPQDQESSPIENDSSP


Key:
[1] = target: human CD20 antigen (human) (UniProt P11836); experiment: flow cytometry, EB1 cells (CD20 positive)
[2] = target: human CD20 antigen (human) (UniProt P11836); experiment: flow cytometry, EHEB cells (CD20 positive)
[3] = target: human CD20 antigen (human) (UniProt P11836); experiment: flow cytometry, Daudi cells (CD20 positive)
[4] = target: human CD20 antigen (human) (UniProt P11836); experiment: flow cytometry, Daudi cells (CD20 positive); remark: listed apart in the source
human CD20 antigen [5] = target: T1, human CD20 antigen; experiment: flow cytometry, EB1 cells (CD20 positive)
Experimental: (§1) Binding specificity was assessed by Fluorometric Microvolume Assay Technology (FMAT, Applied Biosystems 8200 Cellular Detection System) and Flow Cytometry, which tabulates Mean Fluorescence Intensities (MFI) of staining on CD20 positive (CD20⁺) and CD20 negative cell lines.

human CD20 antigen [6] = target: T1, human CD20 antigen; experiment: flow cytometry, Daudi cells (CD20 positive)
Experimental: as §1

human CD20 antigen [7] = target: T1, human CD20 antigen; experiment: flow cytometry, CHO.CD20 cells (CD20 positive)
Experimental: (§2) Binding specificity was assessed by Flow Cytometry, which tabulates Mean Fluorescence Intensities (MFI) of staining on CD20 positive (CD20⁺) and CD20 negative cell lines.

human CD20 antigen [8] = target: T1, human CD20 antigen; experiment: flow cytometry, EHEB cells (CD20 positive)
Experimental: as §2

human CD20 antigen [9] = target: T1, human CD20 antigen; experiment: flow cytometry, Daudi cells (CD20 positive); remark: listed apart in the source
Experimental: as §2

Molecule	Mean Fluorescence Intensity (MFI) (human CD20 antigen [5])	Mean Fluorescence Intensity (MFI) (human CD20 antigen [6])	Mean Fluorescence Intensity (MFI) (human CD20 antigen [7])	Mean Fluorescence Intensity (MFI) (human CD20 antigen [8])	Mean Fluorescence Intensity (MFI) (human CD20 antigen [9])	further results
mAb 271 (rituximab-sequence antibody)	–	–	–	–	–	Mean Fluorescence Intensity (MFI) [1]: 429 MFI; Mean Fluorescence Intensity (MFI) [2]: 130 MFI; Mean Fluorescence Intensity (MFI) [3]: 941 MFI; Mean Fluorescence Intensity (MFI) [4]: 145 MFI
optimized humanized mAb 1237 (antibody, V domains shown, detected with anti-human Ig Fc) VH: QVQLVQSGAEVKKPGSSVKVSCKASGYTFTSYNMHWVRQAPGQGLEWIGAIYPGNGDTSYNQKFKGKATITADKSTSTAYMELSSLRSDDTAVYYCARSTYYAGDWNFNNWGQGTLVTVSS VL: DIQMTQSPSSLSASVGDRVTITCRASSSVSYIHWFQQKPGKAPKPLIYAASSLQSGVPSRFSGSGSGTDYTLTISSLQPEDFATYYCQQWTSNPPTFGGGTKLEIK	395 MFI	132 MFI	106 MFI	161 MFI	1370 MFI	–
optimized humanized mAb 1236 (antibody, V domains shown, detected with anti-human Ig Fc) VH: QVQLVQSGAEVKKPGSSVKVSCKASGYTFTSYNMHWVRQAPGQGLEWIGAIYPGNGDTSYNQKFKGKATITADKSTSTAYMELSSLRSDDTAVYYCARSTYYGGDWNFNNWGQGTLVTVSS VL: DIQMTQSPSSLSASVGDRVTITCRASSSVSYIHWFQQKPGKAPKPLIYAASSLQSGVPSRFSGSGSGTDYTLTISSLQPEDFATYYCQQWTSNPPTFGGGTKLEIK	409 MFI	145 MFI	–	–	–	–
optimized humanized mAb 1238 (antibody, V domains shown, detected with anti-human Ig Fc) VH: QVQLVQSGAEVKKPGSSVKVSCKASGYTFTSYNMHWVRQAPGQGLEWIGAIYPGNGDTSYNQKFKGKATITADKSTSTAYMELSSLRSDDTAVYYCARSTYYAGDWNFNDWGQGTLVTVSS VL: DIQMTQSPSSLSASVGDRVTITCRASSSVSYIHWFQQKPGKAPKPLIYAASSLQSGVPSRFSGSGSGTDYTLTISSLQPEDFATYYCQQWTSNPPTFGGGTKLEIK	389 MFI	114 MFI	–	–	–	–
optimized humanized mAb 1588 (antibody, V domains shown) VH: QVQLVQSGAEVKKPGSSVKVSCKASGYTFTFYNMHWVRQAPGQGLEWIGAIYPGNGDTSYNQKFKGKATITADKSTSTAYMELSSLRSDDTAVYYCARSTYYAGDWNFNNWGQGTLVTVSS VL: DIQMTQSPSSLSASVGDRVTITCRASSSVSYIHWFQQKPGKAPKPLIYAASSLQSGVPSRFSGSGSGTDYTLTISSLQPEDFATYYCQQWTSNPPTFGGGTKLEIK	–	–	140 MFI	338 MFI	2070 MFI	–

Further lines, with some results ahead:

Mean Fluorescence Intensity (MFI) (human CD20 antigen [5])	Mean Fluorescence Intensity (MFI) (human CD20 antigen [6])	Mean Fluorescence Intensity (MFI) (human CD20 antigen [7])	Mean Fluorescence Intensity (MFI) (human CD20 antigen [8])	Mean Fluorescence Intensity (MFI) (human CD20 antigen [9])	Molecule	further results
–	–	140 MFI	345 MFI	1030 MFI	optimized humanized mAb 1589 (antibody, V domains shown) VH: QVQLVQSGAEVKKPGSSVKVSCKASGYTFTSYNMHWVRQAPGQGLEWIGAIYPGNGATSYNQKFKGKATITADKSTSTAYMELSSLRSDDTAVYYCARSTYYAGDWNFNNWGQGTLVTVSS VL: DIQMTQSPSSLSASVGDRVTITCRASSSVSYIHWFQQKPGKAPKPLIYAASSLQSGVPSRFSGSGSGTDYTLTISSLQPEDFATYYCQQWTSNPPTFGGGTKLEIK	–
–	–	135 MFI	429 MFI	1630 MFI	optimized humanized mAb 1590 (antibody, V domains shown) VH: QVQLVQSGAEVKKPGSSVKVSCKASGYTFTSYNMHWVRQAPGQGLEWIGAIYPGNGLTSYNQKFKGKATITADKSTSTAYMELSSLRSDDTAVYYCARSTYYAGDWNFNNWGQGTLVTVSS VL: DIQMTQSPSSLSASVGDRVTITCRASSSVSYIHWFQQKPGKAPKPLIYAASSLQSGVPSRFSGSGSGTDYTLTISSLQPEDFATYYCQQWTSNPPTFGGGTKLEIK	–
–	–	135 MFI	529 MFI	1420 MFI	optimized humanized mAb 1652 (antibody, V domains shown) VH: QVQLVQSGAEVKKPGSSVKVSCKASGYTFTSYNMHWVRQAPGQGLEWIGAIYPGNGATSYNQKFKGKATITADKSTSTAYMELSSLRSDDTAVYYCARSTYYAGDWNFNNWGQGTLVTVSS VL: DIQMTQSPSSLSASVGDRVTITCRASSSVSYIHWFQQKPGKAPKPLIYAASSLQSGVPSRFSGSGSGTDYTLTISSLQPEDFATYYCQQWQSNPPTFGGGTKLEIK	–
–	–	137 MFI	450 MFI	1670 MFI	optimized humanized mAb 1692 (antibody, V domains shown) VH: QVQLVQSGAEVKKPGSSVKVSCKASGYTFTSYNMHWVRQAPGQGLEWIGAIYPGNGDTSYNQKFKGKATITADKSTSTAYMELSSLRSDDTAVYYCARSTYYAGDWNFGNWGQGTLVTVSS VL: DIQMTQSPSSLSASVGDRVTITCRASSSVSYIHWFQQKPGKAPKPLIYAASSLQSGVPSRFSGSGSGTDYTLTISSLQPEDFATYYCQQWTSNPPTFGGGTKLEIK	–

Reference: patent US20160376372A1 (VACCINEX, published 2016)
